The nature of this data set: ATR-FTIR secondary structure of solid-state protein. Type of data set: physicochemical. To be noted: for Random, percent composition / α helix, percent composition / β sheet, percent composition: 10 μM protein in 50 mM PB. The procedure: Attenuated Total Reflectance Fourier Transform Infrared Spectroscopy (ATR-FTIR): ATR-FTIR experiments were performed using Perkin Elmer System 2000 FT-IR with DuraSamplIR II T diamond ATR accessory and equipped with a MCT-A detector. Approximately, 5 μL of peptide solution (10 μM in 50 mM PB, pH 4, 8, and 10) was added on the diamond ATR surface. The spectrum (128 scans) was measured at room temperature over a range of 4000-400 cm^−1 with 0.5 cm^−1 resolution. PeakFit software was used to process the data, which involved a 2nd derivative zero baseline correction of the amide I region between 1700-1600 cm^−1 and deconvolution of peaks with a Gaussian function. All readings represent the average of two trials.
To quantifying the secondary structure of the protein in its solid-state, ATR-FTIR experiments were conducted to evaluate secondary structure of insoluble Q fibers at pH 4, 8, and 10 (Table 8). The frequency measured in the regions of the amide I and amide II absorptions of a protein correlate to the secondary structural motifs within the protein, and were thereby used to assess conformation of the protein in its solid-state (FIGS. 20a-20d). Secondary structure conformation based on ATR-FTIR data for Q in 50 mM PB at pH 4, 8, and 10, and in the presence of curcumin at a 5:1 molar ratio with Q at pH 4 are shown in […]. Percent composition was determined from relative areas of peaks fit to spectra (FIGS. 20a-20d).
Secondary structure conformation based on ATR-FTIR data for 10 μM protein in 50 mM PB before and after templation of AuNPs is provided in Table 10. Percent composition was determined from relative areas of peaks fit to spectra (see spectra FIGS. 37a-37d, FIGS. 38a-38d).

Where [1] appears, read: curcumin at 5:1 molar ratio, pH 4.

With “Q: Q54 protein, SEQ ID NO:2, variant of COMPcc; coiled-coil that self-assembles into homopentamers and nanofibers (MRGSHHHHHHGSIEGRVKEITFLKNTAPQMLRELQETNAALQDVRELLRQQSKL)”, the “Random, percent composition” value by setting is: (+AuNP (after templation)) 27%; (before templation of AuNPs) 0%. The “α helix, percent composition” value (+AuNP (after templation)) is 30% and the “α helix, percent composition” value (before templation of AuNPs) is recorded as 65%. In addition, the “β sheet, percent composition” value was 43% (+AuNP (after templation)) and 35% (before templation of AuNPs). In addition, the “α helix % composition” value came out at 79% under setting [1]; 62% (pH 4, 50 mM PB, 1648-1660 cm^−1); 63% (pH 8, 50 mM PB); 68% (pH 10, 50 mM PB). The “β sheet % composition” value is recorded as 10% under setting [1]; 38% (pH 4, 50 mM PB, 1625-1640, 1675-1695 cm^−1); 37% (pH 8, 50 mM PB); 32% (pH 10, 50 mM PB). Also, the “Random coil % composition” value (curcumin at 5:1 molar ratio, pH 4, 1640-1648 cm^−1) came to 12%.

For the origin of these results see patent US9777041B2, “Protein nanofibers from self-assembling pentamers” (New York University, priority 2013, dated 2017).
